In patent US6051418:

How the values were obtained:
[1] = molecular target: Factor VIII obtained from plasma
[2] = molecular target: Factor VIII dB695 (human) (UniProt P00451)
[3] = molecular target: Factor VIII dB695-HCII (human)

Question: What does the source list for thrombin (enzyme)?
Answer: second order rate constant of activation by thrombin (M^-1 s^-1 × 10^-6) [1]: 2.1e-06 M⁻¹ s⁻¹; second order rate constant of activation by thrombin (M^-1 s^-1 × 10^-6) [2]: 3e-06 M⁻¹ s⁻¹; second order rate constant of activation by thrombin (M^-1 s^-1 × 10^-6) [3]: 2.32e-05 M⁻¹ s⁻¹
